Values quoted from earlier work as cited in PMC8291714.

Target: N protein (N-RNA ring) (Rabies lyssavirus) (UniProt Q8JXF6)
Sequence of UniProt Q8JXF6 (Q8JXF6 whole entry): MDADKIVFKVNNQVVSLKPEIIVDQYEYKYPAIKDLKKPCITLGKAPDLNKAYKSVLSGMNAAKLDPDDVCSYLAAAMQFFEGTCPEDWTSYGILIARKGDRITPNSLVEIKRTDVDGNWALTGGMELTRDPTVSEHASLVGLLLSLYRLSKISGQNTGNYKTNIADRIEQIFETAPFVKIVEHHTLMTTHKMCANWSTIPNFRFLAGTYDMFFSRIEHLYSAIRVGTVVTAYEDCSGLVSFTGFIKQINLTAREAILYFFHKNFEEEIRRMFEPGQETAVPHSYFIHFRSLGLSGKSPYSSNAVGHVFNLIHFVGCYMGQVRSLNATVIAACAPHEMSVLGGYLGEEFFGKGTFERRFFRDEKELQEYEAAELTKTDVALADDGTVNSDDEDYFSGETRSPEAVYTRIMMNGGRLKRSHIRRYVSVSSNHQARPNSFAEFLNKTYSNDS

For P protein CTD (from UniProt P22363), the Kd is given as 160 nM.
